{"source": "paper PMC6141012", "about": "(Nature, 2018)", "binders": {"B1": {"name": "Nam8 (natural protein, S. cerevisiae, UniProt Q00539 1-523, looked up)", "chain": "MSYKQTTYYPSRGNLVRNDSSPYTNTISSETNNSSTSVLSLQGASNVSLGTTGNQLYMGDLDPTWDKNTVRQIWASLGEANINVRMMWNNTLNNGSRSSMGPKNNQGYCFVDFPSSTHAANALLKNGMLIPNFPNKKLKLNWATSSYSNSNNSLNNVKSGNNCSIFVGDLAPNVTESQLFELFINRYASTSHAKIVHDQVTGMSKGYGFVKFTNSDEQQLALSEMQGVFLNGRAIKVGPTSGQQQHVSGNNDYNRSSSSLNNENVDSRFLSKGQSFLSNGNNNMGFKRNHMSQFIYPVQQQPSLNHFTDPNNTTVFIGGLSSLVTEDELRAYFQPFGTIVYVKIPVGKCCGFVQYVDRLSAEAAIAGMQGFPIANSRVRLSWGRSAKQTALLQQAMLSNSLQVQQQQPGLQQPNYGYIPSSTCEAPVLPDNNVSSTMLPGCQILNYSNPYANANGLGSNNFSFYSNNNATNTQATSLLADTSSMDLSGTGGQQVIMQGSEAVVNSTNAMLNRLEQGSNGFMFA"}, "B2": {"name": "Prp42 (natural protein)", "chain": "MDKYTALIHDENFSTLTLNVSRYPKSLAYWEKLLNYIVKASAPICKSTEPQLLKLIRCTYSSMLNEFPYLENYYIDFALLEYKLGNVSMSHKIFQRGLQAFNQRSLLLWTSYLKFCNNVISHQKQLFKKYETAEEYVGLHFFSGEFWDLYLEQISSRCTSSKKYWNVLRKILEIPLHSFSKFYALWLQRIDDIMDLKQLSQLTSKDELLKKLKIDINYSGRKGPYLQDAKKKLKKITKEMYMVVQYQVLEIYSIFESKIYINYYTSPETLVSSDEIETWIKYLDYTITLQTDSLTHLNFQRALLPLAHYDLVWIKYSKWLINSKNDLLGAKNVLLMGLKFSLKKTEIIKLLYSVICKLNEYVLLRNLLEKIESSYSDNVENVDDFEIFWDYLQFKTFCQNSLYSSRYSDSQSNGLLNKELFDKVWKRLSCKEKKSGQEILLNNLVQFYSKDTVEFVEKNIFQKIIEFGWEYYLQNGMFWNCYCRLIYFDTSRSYLDKRQYIVRKIWPQIDKKFAQSVLPSLTEFCESYFPEEMDTLEEMFTEEP"}}, "assay_in_all_cases": "cryo-EM structure", "key": {"Prp39": {"target": "T1, Prp39 (S. cerevisiae, UniProt P39682 1-629)", "T1 sequence": "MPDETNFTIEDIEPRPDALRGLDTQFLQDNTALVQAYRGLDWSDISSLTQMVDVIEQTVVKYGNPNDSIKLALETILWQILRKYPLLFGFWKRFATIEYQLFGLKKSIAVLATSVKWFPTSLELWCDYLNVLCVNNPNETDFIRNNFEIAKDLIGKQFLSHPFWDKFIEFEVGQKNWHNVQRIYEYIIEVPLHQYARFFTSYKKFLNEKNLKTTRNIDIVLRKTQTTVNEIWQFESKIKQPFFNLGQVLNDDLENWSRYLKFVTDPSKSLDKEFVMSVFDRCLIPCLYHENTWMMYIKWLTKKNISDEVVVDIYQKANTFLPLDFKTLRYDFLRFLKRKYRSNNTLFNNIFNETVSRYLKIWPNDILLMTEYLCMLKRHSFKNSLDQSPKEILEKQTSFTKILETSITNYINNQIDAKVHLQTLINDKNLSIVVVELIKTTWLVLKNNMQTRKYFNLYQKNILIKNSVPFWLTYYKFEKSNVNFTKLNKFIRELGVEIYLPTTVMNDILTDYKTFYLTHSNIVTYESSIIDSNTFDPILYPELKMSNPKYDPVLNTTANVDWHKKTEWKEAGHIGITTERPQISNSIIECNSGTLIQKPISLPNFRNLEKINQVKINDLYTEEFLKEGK"}, "Nam8": {"target": "B1"}, "Prp42": {"target": "B2"}, "Snu71": {"target": "T2, Snu71 (S. cerevisiae, UniProt P53207 1-620)", "T2 sequence (looked up)": "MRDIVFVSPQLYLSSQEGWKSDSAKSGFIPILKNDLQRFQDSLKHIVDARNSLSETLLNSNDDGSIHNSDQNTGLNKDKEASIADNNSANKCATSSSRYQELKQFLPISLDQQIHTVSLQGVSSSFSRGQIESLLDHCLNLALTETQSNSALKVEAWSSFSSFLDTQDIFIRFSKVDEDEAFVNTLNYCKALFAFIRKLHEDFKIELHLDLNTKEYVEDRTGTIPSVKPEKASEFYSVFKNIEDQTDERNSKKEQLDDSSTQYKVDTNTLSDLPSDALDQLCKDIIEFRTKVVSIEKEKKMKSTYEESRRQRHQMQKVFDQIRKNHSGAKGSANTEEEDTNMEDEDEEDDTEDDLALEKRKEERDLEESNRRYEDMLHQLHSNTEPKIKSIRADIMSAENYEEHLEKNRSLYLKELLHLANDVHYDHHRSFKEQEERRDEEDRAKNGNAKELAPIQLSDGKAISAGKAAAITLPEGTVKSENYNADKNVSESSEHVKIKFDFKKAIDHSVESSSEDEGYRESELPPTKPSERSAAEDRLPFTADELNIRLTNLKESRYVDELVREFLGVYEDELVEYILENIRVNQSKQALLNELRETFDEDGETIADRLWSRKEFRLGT"}}}
{"binder": "Yhc1 (natural protein, S. cerevisiae, UniProt Q05900 1-231, looked up) MTRYYCEYCHSYLTHDTLSVRKSHLVGKNHLRITADYYRNKARDIINKHNHKRRHIGKRGRKERENSSQNETLKVTCLSNKEKRHIMHVKKMNQKELAQTSIDTLKLLYDGSPGYSKVFVDANRFDIGDLVKASKLPQRANEKSAHHSFKQTSRSRDETCESNPFPRLNNPKKLEPPKILSQWSNTIPKTSIFYSVDILQTTIKESKKRMHSDGIRKPSSANGYKRRRYGN", "values": [{"measurement": "binding result", "setting": "Prp39", "value": "binds"}, {"measurement": "binding result", "setting": "Nam8", "value": "binds"}, {"measurement": "binding result", "setting": "Prp42", "value": "binds"}]}
{"binder": "Lea1 (natural protein, S. cerevisiae, UniProt Q08963 1-238, looked up) MKFTPSIVIDAPQYYVDHFNGKYNVDKCVILRDLQLETDSESMPSSLKHLTKPTHILDLTNNDLIMIPDLSRRDDIHTLLLGRNNIVEVDGRLLPMNVQNLTLSNNSIRRFEDLQRLRRAPRTLKNLTLIGNQVCHLANYREHVLRLVPHLETLDFQNVTAEERKSAMSFPRQADGDTLGPVNTAIRDNGSRDKTMEIMNLVVSKMTVERRNELKKQLAEATSLEEIARLEKLLSGGV", "values": [{"measurement": "binding result", "setting": "Prp39", "value": "binds"}]}
{"binder": "B1", "values": [{"measurement": "binding result", "setting": "Prp39", "value": "binds"}, {"measurement": "binding result", "setting": "Prp42", "value": "binds"}]}
{"binder": "Snu56 (natural protein, S. cerevisiae, UniProt Q03782 1-492, looked up) MRPRRRGLAYHHTKPKGQLSQGHYPTTSNDGQRRKVGNSEAFQSFDIWKNLDRIRSTKKNAGQFIKGSLLILPMRTEDKQQFDECMDELHKYISKDILRCYPQKEQKDEGMLFYIVLKDFNILDSCFVLSVLLAFQKRLWMAPSEKSYFRVPKNINLTGSFYLPKNIETGRGHIITSYRREQPSSSIVEVGFNVVPDFQQFQVKACHVSKFMNELSNFFSQVEFGKCEANVINYFKREYNRTYSQISLALYELPLIGDGLFDIKSYISKTRPIIETSKAQMIKHISEMKAYNEISGLQGDQFPRQQRPLSNSPSSNSISSSQTIEAGATSYQTQPQRHAVNKPSNVLNSSNRHSGPKTFEDGRYSEGNKPGFMTQDEIKQHCIGTIKASMDAVKKKSSYQILKTYVRCPRQNYIDIVYQNLNDLRSKTNCNIVVLNLNNLHESQMWLESLNTTNYTIFAQAPHPSTIRVISIGGVGEYIVKALELILNILEH", "values": [{"measurement": "binding result", "setting": "Snu71", "value": "binds"}]}
{"binder": "B2", "values": [{"measurement": "binding result", "setting": "Prp39", "value": "binds"}, {"measurement": "binding result", "setting": "Snu71", "value": "binds"}]}
